Measurements: paper PMC4479705 (mBio, 2015)

Target: recombinant factor H binding protein (FHbp) ID 1 (Neisseria meningitidis serogroup B …, UniProt Q9JXV4)
Test: SPR

recombinant factor H binding protein (FHbp) ID 1, sequence (Q9JXV4 20-274): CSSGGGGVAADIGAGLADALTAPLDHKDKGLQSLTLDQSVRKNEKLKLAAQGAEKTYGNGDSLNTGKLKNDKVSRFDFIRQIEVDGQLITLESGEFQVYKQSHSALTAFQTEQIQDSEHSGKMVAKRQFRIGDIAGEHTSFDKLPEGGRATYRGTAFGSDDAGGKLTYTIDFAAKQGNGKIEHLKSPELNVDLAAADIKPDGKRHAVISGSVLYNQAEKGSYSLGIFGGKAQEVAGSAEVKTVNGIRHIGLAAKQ

Binder	Kd [nM]	koff [s⁻¹]	kon [M⁻¹ s⁻¹]
human anti-FHbp Fab 8A (Fab, V domains shown) VH: QVQLVESGGGLVQPGGSLRLSCVTSGFTFRSYAMTWVRQAPGKGLEWVSSISHSGGSTKYADSVKGRLTISRDDSMDTLYLQMNSLRAEDTAIYYCAKDQISYPAASPLDYWGRGTLVTVSS VL: EIVLTQSPGTLSLSPGERATLSCRASQSFSSFSLAWYQQKPGQAPRLLIYAPSNRATGIADRFSGSGSGTDFTLTISRLEPEDFAVYYCQQYGSSPITFGQGTRLEIK	1.04	0.002	2.3e+06
human anti-FHbp Fab 9B (Fab, V domains shown) VH: EVQLVQSGAELKKPGESLKISCKASGYTFTNYWVVWVRQMPGEGLEWMGSIHPRDSDARYSLSFEGRVTFSVDKSTTTAYLQWSSLKVSDSAIYYCARLSQVSGWSPWVGPWGQGTLVTVSS VL: DIVMTQSPSSLSASVGDRVTITCRASQSISVSLNWYQQKPGKAPKVLIYAASRLQSGIPSRFSGSGSGSHFTLTISSLQPEDFATYYCQETYSDLMYTFGQGTKVEIK	0.019	4e-05	1.85e+06
control chimeric human-mouse anti-FHbp Fab 502 (Fab, V domains shown) VH: EVQLQESGPGLAKPSQTLSLTCSVTGYSITSDFWNWIRKFPGNKLEYMGYISYSGSTDYNPSLKSRISITRDTSKNQYYLQLNSVTAEDTATYYCARYFGSSYAMDHWGQGTSVTVSS VL: DIQMTQSPASLSASVGETVTITCRASGNIHNYLAWYQQKQGKSPQLLVYTAKTLAEGVPSRFSGSGSGTQFSLKINSLQPEDFGSYYCQHFWSTPWTFGGGTKLEIK	4.8	0.0053	1.09e+06
human anti-FHbp Fab 6B (Fab, V domains shown) VH: EVQLVESGGGLVQPGGSLRLSCAASGFTFSSYAMSWVRQAPGKGLEWVSAISGSGGSSHYTDSVKGRFTISRDNSKNTLWLQMNSLRAEDTAIYYCAKTSGSYYYHYEIDVWGQGTTVTVSS VL: EIVLTQSPGTLSLSPGERATLSCRASQSVSSSYLAWYQQKPGQAPRLLIYGTSNRATGIPDRFSGSGSGTDFTLTVSRLEPEDFAVYYCQQYGSSPCSFGQGTKLELK	0.82	0.0004	500000
human anti-FHbp Fab 4B (Fab, V domains shown) VH: EVQLVESGGGLAQPGGSLRLSCVASGSTFGSYAIYWVRQAPGKGLEWVSGISGSGTKIDYADSVKGRFTISRDISKNTLYLQMNSLRAEDTAVYYCAKLGFFDYWGQGTQVTVSS VL: EIVLTQSPDTLSLSPGERATLSCRASQSVSTYLFWYQKKPGQAPRLLIFDASNRATGIPVRFSGSGSGTDFTLTISSLEPEDFAVYYCQQRSNWPQTFGGGTKVEIK	0.86	0.0006	720000
human anti-FHbp Fab 10C (Fab, V domains shown) VH: QVQLVESGGGVVQPGRSLRLSCPASGFTFSRYALHWVRQAPGKGLEWVAVISFDGSFKYYADSVKGRFSISRDNFKNTLYLQMNSLRAEDTAVYYCAKDDTLHASGWGGFDYWGQGALVTVSS VL: EIVLTQSPATLSLSPGERATLSCRASQSVTSYLTWYQHKPGQAPRLLIYHTSYRATGIPARFSGSGSGTDFTLSITSLEPEDFAVYYCQQRSNWPFTFGPGTKVDIK	0.68	0.0005	930000
human anti-FHbp Fab 3C (Fab, V domains shown) VH: QVQLQESGPGLVKPSETLSLTCTVSGYSITRGYYWGWIRQPPGKGLEWIGGIYHSGTTYQNPSLRSRVTFSVDTSKNQFSLKLRSVTAADTAVYYCARDNYSSNLDYWGQGTMVTVSS VL: EIVLTQSPGTLSLSPGERATLSCRASQSVSSSYLAWYQQKAGQAPRLLIYGASSRATGIPERFSGSGSGTDFTLTISRLEPEDFAIYYCQQYGSSRFIFGPGTKVDIK	130	0.0032	30000
human anti-FHbp Fab 2A (Fab, V domains shown) VH: QVQLQQSGSGLVKPSQTLSLTCTVSGGSINIGDRYWSWLRQSPGKGLEWIGYIDYSGDTYYNSSLKSRAAISIDTSNKQFSLKLSSVTAADTAVYYCARGSSDFSSGYFFDYWGQGTLVTVSS VL: ETTLTQSPATLSVSPGERAILSCRDSQSVSSNLAWYQQKPGQAPRLLIFGASTRATGIPARFSGSGSGTEFTLTISSLQSEDFAVYYCQQYNNWLSFGQGTKLEIK	115	0.061	530000
human anti-FHbp Fab 5B (Fab, V domains shown) VH: EVQLLESGGGLVQPGGSLRLSCAASGYTFGSYAMTWVRQGPGKGLEWVSTILGSGADTYYADSVKGRFTISRDNSRNTLFMQLSSLRAEDTAVYYCAKLGYYDTWGQGTLVTVSS VL: EIVLTQSPATLSLSPGERATLSCRASQSIASYLYWYQQKPGQAPRLLIFDASNRATGTPARFSGSGSGTDFTLTISSLEPEDFAVYYCQQRNNWPRALTFGGGTKVEIK	10.6	0.0041	390000

Target: recombinant factor H binding protein (FHbp) ID 1 (Neisseria meningitidis) (UniProt Q9JXV4)
Sequence (Q9JXV4 20-274): as the sequence (Q9JXV4 20-274) above
Test: SPR

Binder	Kd [nM]
human anti-FHbp Fab 7B (Fab, V domains shown) VH: QVQLVQSGPEVKKPGASVKISCKTSGYTFTTNALYWVRQAPGQRPEWVGWLNTGNGNSKTSQNFQGRVTITRDTSASSTYMELSSLTFEDTAVYFCARRPSGDYNTYYFDFWGQGTLVTVSS VL: EIVMTQSPGTLSLSPGGRGTLSCRASESVSSSYISWYQHKSGQAPRLLIYGASSRATGIPDRFSGSGSGTDFTLTISRLEPEDFAVYYRQYFSGSKGLTFGPGTKVDIK	22.9
